Paper PMC6825194
pKd: −log10 of the molar value.

Columns and labels:
CCM1-K8 [1] = experiment: BLI; GST-tagged fragments from PTB domains and HIS-tagged NPXY motifs, purified; Table 5 heads CCM1-K8 as 'Ligand'; who was immobilised and the conditions are not stated (as in ref. 20)
CCM1-K2 = experiment: ITC; GST-tagged fragments from PTB domains and HIS-tagged NPXY motifs, purified; Table 5 heads CCM1-K8 and CCM1-K2 as 'Ligand'; conditions not stated (as in ref. 20)
CCM1-K8 [2] = experiment: as above

pKd (CCM1-K8 [1]): 5.39 | pKd (CCM1-K2): 5.19 | pKd (CCM1-K8 [2]): 5.70
Substance: CCM2-EX6 (from UniProt Q9BSQ5 1-444) (domain or fragment)
